Assay results published in patent publication US20220105163A1.

Tests used:
[1] = biological target: Recombinant human IL-6 (human) (UniProt P05231); assay: cell-based or functional assay
[2] = biological target: IL-6 receptor on TF-1 cells (human) (UniProt P08887); assay: cell-based or functional assay
Sequence of IL-6 receptor on TF-1 cells (human) (P08887 20-468): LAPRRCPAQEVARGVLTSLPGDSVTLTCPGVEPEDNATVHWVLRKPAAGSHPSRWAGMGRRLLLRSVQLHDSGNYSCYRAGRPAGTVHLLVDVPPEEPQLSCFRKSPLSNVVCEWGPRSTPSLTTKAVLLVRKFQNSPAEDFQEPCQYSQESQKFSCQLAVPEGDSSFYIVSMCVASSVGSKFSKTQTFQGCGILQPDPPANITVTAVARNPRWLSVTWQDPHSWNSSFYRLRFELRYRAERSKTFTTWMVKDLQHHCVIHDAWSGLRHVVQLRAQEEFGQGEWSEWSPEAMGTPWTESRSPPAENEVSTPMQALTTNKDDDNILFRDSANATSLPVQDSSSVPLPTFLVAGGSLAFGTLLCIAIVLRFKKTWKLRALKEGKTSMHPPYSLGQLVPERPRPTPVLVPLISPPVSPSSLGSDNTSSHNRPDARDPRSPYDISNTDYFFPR

Sequence of Recombinant human IL-6 (human) (P05231 30-212 limits assumed): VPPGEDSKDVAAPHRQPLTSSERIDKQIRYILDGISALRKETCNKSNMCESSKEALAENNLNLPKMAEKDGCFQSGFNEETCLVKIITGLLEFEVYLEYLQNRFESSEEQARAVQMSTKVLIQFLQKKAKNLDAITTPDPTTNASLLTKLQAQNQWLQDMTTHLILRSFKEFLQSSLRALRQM

IC50 (µg/mL), IL-6 induced TF-1 proliferation [1]	IC50 (µg/mL), IL-6 induced TF-1 proliferation [2]	Substance
> 100 µg/mL	–	Non GP IgG (antibody)
–	0.365 µg/mL	Tocilizumab (antibody)
